According to US20060264615A1 (MAXYGEN, published 2006):

T1: wild-type human p40 polypeptide (human, UniProt P29460 23-328)
T1 construct: Secreted from COS-7 or 293 cells co-transfected with a p35 nucleic acid; also called wt-p40
T1 sequence: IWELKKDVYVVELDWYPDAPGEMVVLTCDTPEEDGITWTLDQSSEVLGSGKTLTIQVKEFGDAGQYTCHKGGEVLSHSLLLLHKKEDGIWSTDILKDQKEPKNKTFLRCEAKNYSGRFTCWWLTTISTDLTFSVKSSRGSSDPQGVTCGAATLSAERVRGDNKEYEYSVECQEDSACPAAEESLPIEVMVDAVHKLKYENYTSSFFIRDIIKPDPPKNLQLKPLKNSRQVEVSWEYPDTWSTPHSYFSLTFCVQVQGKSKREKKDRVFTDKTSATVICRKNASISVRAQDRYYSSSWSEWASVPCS

T2: modified p35 polypeptide R2-571 with C-terminal EHtag
T2 construct: Recombinant (shuffled) p35 variant with the EHtag fused to its C-terminus; also called R2-571-EHtag
T2 chain: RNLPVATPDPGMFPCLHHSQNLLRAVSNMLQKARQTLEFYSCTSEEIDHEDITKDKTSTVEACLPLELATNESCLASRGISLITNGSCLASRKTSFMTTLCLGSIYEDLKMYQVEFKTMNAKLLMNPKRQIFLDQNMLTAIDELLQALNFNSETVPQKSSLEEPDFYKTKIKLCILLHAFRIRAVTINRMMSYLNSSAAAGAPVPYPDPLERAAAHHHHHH

B1: modified p40 polypeptide B8-96 (ligand)
chain: IWELEKNVYVVELDWYPDAPGEMVVLACDTPEEDGITWTSDQSSEVLGTGKTLTIHVKEFGDAGQYTCRKGGAVLSQSLLLLHKKEDGIWSTDILKDQKEPKNKSFLKCEAKNYSGRFTCWWLTTISTDLKFSVKSSRGSSDPRGVTCGAALLSAEKVSLEHREYKKYRVECQEGSACPAAEESLPIEVVLEAVHKLKYENYTSSFFIRDIIKPDPPKNLQLRPLKNSRQVEVNWEYPDTWSTPHSYFSLTFCVQVQGKNKREKKLFMDQTSAKVTCHKDAKIRVQARDRYYSSSWSEWASVPCS
B2: wild-type human p35 polypeptide (ligand)
chain: RNLPVATPDPGMFPCLHHSQNLLRAVSNMLQKARQTLEFYPCTSEEIDHEDITKDKTSTVEACLPLELTKNESCLNSRETSFITNGSCLASRKTSFMMALCLSSIYEDLKMYQVEFKTMNAKLLMDPKRQIFLDQNMLAVIDELMQALNFNSETVPQKSSLEEPDFYKTKIKLCILLHAFRIRAVTIDRVTSYLNAS
notes: Secreted from COS-7 or 293 cells co-transfected with a p40 nucleic acid; also called wt-p35
B3: modified p40 polypeptide B2-52 (ligand)
chain: IWELEKNVYVVELDWYPDAPGEMVVLACDTPEEDGITWTSDQSSGVLGTGKTLTIHVKEFGDAGQYTCRKGGAVLSQSLLLLHKKEDGIWSTDILKDQKEPKAKSFLKCEAKDYSGHFTCWWLTTISTDLKFSVKSSRGSSDPQGVTCGAVTLSAERVSMDHREYNKYTVECQEGSACPSAEESLPIEVVVDAIHKLKYENYTSSFFIRDIIKPDPPKNLQLRPLKNSRQVEVNWEYPDTWSTPHSYFSLTFCVQVQGKNKREKKLFMDQTSAKVTCHKDAKIRVQARDRYYSSSWSEWASVPCS
B4: modified p40 polypeptide C2-22 (ligand)
chain: IWELKKDVYVVELDWYPNAPGETVVLTCDTPEEDGITWTSDQSSEVLGTGKTLTIHVKEFGDAGQYTCRKGGEALSRSLLLLHKKEDGIWSTDILKDQKEPKNKSFLKCEAKNYSGRFTCWWLTTISTDLKFSVKSSRGSTDPRGVTCGTATLSEDLGEYKKYRVECQEGSACPAAEESLPIEVVLEAVHKLKYENYTSSFFIRDIIKPDPPKNLQLKPLKNSRHVEVSWGYPDTWSTPHSYFSLTFCIQVQGKSKREKKDRIFTDKTSATVICRKNAKIRVQARDRYYSSFWSEWASVSCS
notes: Recombinant (shuffled) p40 variant; the mature region is stated as residues 23-324; also called p40C2-22
B5: modified p40 polypeptide A16-94 (ligand)
chain: IWELKKDVYVVELDWYPDAPGEMVVLACDTPEEDGITWTSDQSSEVLGTGKTLTIHVKEFGDAGQYTCHKGGTVLSQSLLLLHKKEDGIWSTDILKDQKEPKNKSFLKCEAKNYSGRFTCWWLTAISTDLKFTVKSSRGSTDPRGVTCGTATLSEDLGEYKKYRVECQEGSACPAAEESLPIEVVLEAVHKLKYENYTSSFFIRDIIKPDPPKNLQLRPLKNSRHVEVSWEYPDTWSAPHSYFSLTFGVQVQGRNKREDRLFMDQTSAKVVCHKDAKIRVQARDRYYSSSWSEWASVSLQSV
B6: wild-type human p35 polypeptide with C-terminal EHtag (ligand)
chain: RNLPVATPDPGMFPCLHHSQNLLRAVSNMLQKARQTLEFYPCTSEEIDHEDITKDKTSTVEACLPLELTKNESCLNSRETSFITNGSCLASRKTSFMMALCLSSIYEDLKMYQVEFKTMNAKLLMDPKRQIFLDQNMLAVIDELMQALNFNSETVPQKSSLEEPDFYKTKIKLCILLHAFRIRAVTIDRVTSYLNASAAAGAPVPYPDPLERAAAHHHHHH
notes: wt-p35 with the EHtag fused to its C-terminus; also called wt-p35-EHtag
B7: modified p40 polypeptide B1-81 (ligand)
chain: IWELEKNVYVVELDWYPDAPGETVVLACDTPEEDGITWTSDQSSEVLGTGKTLTIHVKEFGDAGQYTCRKGGAVLSQSLLLLHKKEDGIWSTDILKDQKKPKNKIFLKCEAKNYSGRFTCWWLTAISTDLKFTVKSSRGSSDPQGVTCGAVTLSAERVSMDHREYNKYTVECQEGSACPSAEESLPIEVVVDAIHKLKYENYTSRFFIRDIIKPDPPKNLQLRPLKNSRHVEISWEYPDTWSTPHSYFSLTFCVQVQGKNKREKKLFMDQTSAKVTCHKDAKIRVQARDRYHSSSWSEWASVPCS
B8: modified p40 polypeptide A3-48 (ligand)
chain: IWELEKNVYVVELDWYPDAPGEMVVLACDTPEEDGITWTSDQSSEVLGTGKTLTIHVKEFGDAGQYTCHKGGKVLSRSLLLLHKKEDGIWSTDILKDQKEPKNKSFLKCEAKNYSGRFTCWWLTTISTDLTFSVKSSRGSTDPHGVTCGTATLSEDLGEYKKYRVECQEGSACPAAEESLPIEVVLEAVHKLKYENYTSSFFIRDIIKPDPPKNLQLRPLKNSRQVEVNWEYPDTWSTPHSYFSLTFCVQVQGRNKREKKLFMDQTSAKVTCHKDAKIRVQARDRYYSSSWSDWASVSCG

Columns and labels:
[1] = target: B2; test: immunoblot with anti-p35 mAB of COS-7 culture medium; ~70 kDa p40/p35 heterodimer band (FIG. 7)
[2] = target: T1, wild-type human p40 polypeptide; test: immunoblot with anti-p35 mAB of COS-7 culture medium; ~70 kDa p40/p35 heterodimer band, control (FIG. 7)
[3] = target: T2, modified p35 polypeptide R2-571 with …; test: Western blot with anti-E tag mAB of heterodimer purified on an anti-E affinity column through the p35 EHtag (FIG. 14)
Excerpt: (§1) Co-expressing in mammalian cells a modified p40 nucleic acid of the invention plus a modified p35 nucleic acid of the invention produces a substantially more homogenous heterodimeric protein than the heterodimeric protein produced by co-expressing a wt-p40 nucleic acid and a wt-p35 nucleic acid. […] Both the modified p35 nucleic acid and the wt-p35 nucleic acid also comprised a C-terminal EHtag coding sequence.

[4] = target: T1, wild-type human p40 polypeptide; test: as above
Excerpt: as §1

Row | binding result [1] | Binder | further results
1 | binds | B1 | 
2 |  | B2 | binding result [2]: binds
3 | binds | B3 | 
4 | binds | B4 | binding result [3]: binds
5 | binds | B5 | 
6 |  | B6 | binding result [4]: binds
7 | binds | B7 | 
8 | binds | B8 | 
